In article PMC5998024, “Hydrophobic pore gates regulate ion permeation in polycystic kidney disease 2 and 2L1 channels” (Nature Communications, 2018):

Molecular target: the molecule itself
Assay: cryo-EM structure; single-particle cryo-EM of purified PKD2 F604P (53-792) in amphipols A8-35; C4 symmetry imposed, reconstruction without imposed symmetry also showed C4 symmetry; 3.5 Å

B1: maltose binding protein fused human PKD2 protein, residues 53-792, harboring the F604P GOF mutation (domain or fragment, UniProt Q13563-1 53-792, looked up)
chain: EIEMQRIRQAAARDPPAGAAASPSPPLSSCSRQAWSRDNPGFEAEEEEEEVEGEEGGMVVEMDVEWRPGSRRSAASSAVSSVGARSRGLGGYHGAGHPSGRRRRREDQGPPCPSPVGGGDPLHRHLPLEGQPPRVAWAERLVRGLRGLWGTRLMEESSTNREKYLKSVLRELVTYLLFLIVLCILTYGMMSSNVYYYTRMMSQLFLDTPVSKTEKTNFKTLSSMEDFWKFTEGSLLDGLYWKMQPSNQTEADNRSFIFYENLLLGVPRIRQLRVRNGSCSIPQDLRDEIKECYDVYSVSSEDRAPFGPRNGTAWIYTSEKDLNGSSHWGIIATYSGAGYYLDLSRTREETAAQVASLKKNVWLDRGTRATFIDFSVYNANINLFCVVRLLVEFPATGGVIPSWQFQPLKLIRYVTTFDFFLAACEIIFCFFIFYYVVEEILEIRIHKLHYFRSFWNCLDVVIVVLSVVAIGINIYRTSNVEVLLQFLEDQNTFPNFEHLAYWQIQFNNIAAVTVFFVWIKLFKFINFNRTMSQLSTTMSRCAKDLFGFAIMPFIIFLAYAQLAYLVFGTQVDDFSTFQECIFTQFRIILGDINFAEIEEANRVLGPIYFTTFVFFMFFILLNMFLAIINDTYSEVKSDLAQQKAEMELSDLIRKGYHKALVKLKLKKNTVDDISESLRQGGGKLNFDELRQDLKGKGHTDAEIEAIFTKYDQDGDQELTEHEHQQMRDDLEKEREDLDLD
notes: human PKD2 (polycystin-2, TRPP2), residues 53-792 (E53-D792), with the gain-of-function mutation F604P; cytoplasmic N- and C-termini not seen in the map; also called PKD2 F604P; F604P mutant; source: HEK293S GnTI- cells, transduced with baculovirus, purified (amylose resin, amphipols A8-35, Superdex 200)
  stoichiometry N: 4
